Reference: publication PMC9316690

How the values were obtained:
[1] = molecular target: EFm1 D166Q, full-length chain (E. faecalis phage IME-EF1); assay: crystal structure; EFm1_(D166Q) 15 mg/mL, sitting drop, 16 °C; 2.2 Å; phases by Se-Met SAD
[2] = molecular target: C-terminal domain EFm1 166-237 aa (E. faecalis phage IME-EF1); assay: crystal structure; EFm1_(166–237 aa) 10 mg/mL, sitting drop, 16 °C; 2.0 Å; eight monomers in the asymmetric unit

| stoichiometry N (CTD fragments per full-length chain) [1] | stoichiometry N [2] | Substance |
| --- | --- | --- |
| 3 |  | 8 kDa C-terminal fragment of EFm1, translated from the alternative start codon M168 (domain or fragment) |
|  | 4 | C-terminal domain EFm1 166-237 aa (domain or fragment) |
